Results as given in article PMC8080463.

target: bFGF (UniProt P09038 143-288); assay: SPR
Sequence (P09038 143-288): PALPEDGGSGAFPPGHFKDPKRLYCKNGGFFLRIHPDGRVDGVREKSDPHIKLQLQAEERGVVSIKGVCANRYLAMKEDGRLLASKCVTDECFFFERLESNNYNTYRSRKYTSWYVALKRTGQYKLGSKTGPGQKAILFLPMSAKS

Binder | binding result
GGCGAGCCGGCGGCCCGGGACCTGGG (ssDNA) [bFGF-PQS16] | no binding
GGGGGCGGCGCGCAGGAGGGAGG (ssDNA) [bFGF-PQS2] | no binding
GGGGGCGCGGGAGGCTGGTGGGTGTGGGGGG (ssDNA) [bFGF-PQS3] | no binding
GGGCCGGGGCCGGGGGACGG (ssDNA) [bFGF-PQS7] | no binding
GGCCGGGCGGGAAGG (ssDNA) [bFGF-PQS13] | no binding
GGTTTCTGGCCGCGCGGCCCTCGG (ssDNA) [bFGF-PQS8] | no binding
GGGAGGCTGGGGGGCCGGGGCCGGGG (ssDNA) [bFGF-PQS5] | no binding
GGGGGCGGGGGAGAGGCGAGGGGCGGGGGG (ssDNA) [bFGF-PQS17] | no binding
GGGCACGGCCCCGGCCCCGG (ssDNA) [bFGF-PQS15] | no binding
GGGCCGGGGGTACTGGTTTACAGG (ssDNA) [bFGF-PQS10] | no binding
GGAGCGGGTCGGAGG (ssDNA) [bFGF-PQS6] | no binding
GGAAAGGAGGGGG (ssDNA) [bFGF-PQS11] | no binding
GGGCAAGGCGGGCAGCGTGG (ssDNA) [bFGF-PQS14] | no binding
GGGAGGAGGGTGCAGGCTGGAGG (ssDNA) [bFGF-PQS12] | no binding
GGCTGCGGCGTAGGCCCGGG (ssDNA) [bFGF-PQS9] | no binding
GGGGTTGGGCGGGGGTGACTTTTGGGGGATAAGGGG (ssDNA) [bFGF-PQS1] | no binding
GGCTCGAGGCTGGGGGACCGCGG (ssDNA) [bFGF-PQS4] | no binding
GGCCGCGGCAGGGCTTTGG (ssDNA) [bFGF-PQS18] | no binding

target: HB-EGF (UniProt Q99075 63-148); assay: SPR
Sequence (Q99075 63-148): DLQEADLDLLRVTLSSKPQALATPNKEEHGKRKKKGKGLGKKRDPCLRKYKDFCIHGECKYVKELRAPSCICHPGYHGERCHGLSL

Binder | binding result
GGCCGGGAATAAGGCTCCAGG (ssDNA) [HBEGF-PQS5] | no binding
GGCGCGCGGGGTCGGGCGGCCGCGCGGG (ssDNA) [HBEGF-PQS6] | no binding
GGAGGCGGCCGG (ssDNA) [HBEGF-PQS14] | no binding
GGAGCGGCTTCGGAGAGG (ssDNA) [HBEGF-PQS13] | no binding
GGCGGCCACTGGGCGCTGG (ssDNA) [HBEGF-PQS3] | no binding
GGGCGGCGGAGCTCAGG (ssDNA) [HBEGF-PQS4] | no binding
GGACGGGCGTCGGCATCGG (ssDNA) [HBEGF-PQS11] | no binding
GGTCAGGGGTCTGGGCGGG (structured_DNA) [HBEGF-PQS12] | no binding
GGGAGGGTCCGGGTTGCTGG (structured_DNA) [HBEGF-PQS1] | no binding
GGAGGCGGCGAGG (structured_DNA) [HBEGF-PQS2] | no binding
GGCACGGGCCACTTGGTGGGG (ssDNA) [HBEGF-PQS10] | no binding
GGCGGGCGGCAGACGGTGCCCGG (ssDNA) [HBEGF-PQS7] | no binding

target: aFGF (UniProt P05230 16-155); assay: SPR
Sequence (P05230 16-155): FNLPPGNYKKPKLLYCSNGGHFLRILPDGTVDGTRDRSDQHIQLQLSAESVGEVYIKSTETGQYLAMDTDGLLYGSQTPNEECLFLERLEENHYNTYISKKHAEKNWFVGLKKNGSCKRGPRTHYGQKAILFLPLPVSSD

Binder | binding result
GGATGGGACAAGGGACAGG (ssDNA) [aFGF-PQS22] | no binding
GGGAAGGAGGGAGGAAGGGAGGGAGGG (ssDNA) [aFGF-PQS20] | no binding
GGGCTTGGCTCTGGGGATGG (ssDNA) [aFGF-PQS11] | no binding
GGTGGGTGGGTATGG (ssDNA) [aFGF-PQS4] | no binding
GGCATGGTATCTGGAGGCAGG (ssDNA) [aFGF-PQS13] | no binding
GGAGACGGTAGGGCAAAGTGG (ssDNA) [aFGF-PQS3] | no binding
GGCACTGGAGGAATGG (ssDNA) [aFGF-PQS5] | no binding
GGGTGGTGTGGGAGTGG (ssDNA) [aFGF-PQS12] | no binding
GGAGAGGGTAGAGTGGGATGGG (ssDNA) [aFGF-PQS2] | no binding
GGCTAGAAGGTGGGGAATAAGG (ssDNA) [aFGF-PQS10] | no binding
GGCCTGCAGGACTCTGGGAGG (ssDNA) [aFGF-PQS15] | no binding
GGTGGAGGAAAGG (ssDNA) [aFGF-PQS19] | no binding
GGGCTGGAGGGGGCAGG (ssDNA) [aFGF-PQS14] | no binding
GGTGGGGGGGG (ssDNA) [aFGF-PQS7] | no binding
GGGAGAGGGACGGGCCGTGG (ssDNA) [aFGF-PQS6] | no binding
GGTCCCAGGCCTGGGAGGG (ssDNA) [aFGF-PQS21] | no binding
GGAAATGAGGCAGAGGGGGAGTAAGG (ssDNA) [aFGF-PQS17] | no binding
GGCCAGGACAGGGTAAGG (ssDNA) [aFGF-PQS9] | no binding
GGGAGGTTAGGGTTGG (ssDNA) [aFGF-PQS18] | no binding
GGTGGGAGGAAGG (ssDNA) [aFGF-PQS23] | no binding
GGAGAACAGGAAGGCGGGGGTGAGGG (ssDNA) [aFGF-PQS1] | no binding
GGGCAAAGGTCCTAGGGTGGGGG (ssDNA) [aFGF-PQS16] | no binding
GGTTGGGACTGGCGAGG (ssDNA) [aFGF-PQS8] | no binding

target: HGF (UniProt P14210;P14210 32-494;495-728); assay: SPR
Sequence (P14210 32-494, chain 1 of 2): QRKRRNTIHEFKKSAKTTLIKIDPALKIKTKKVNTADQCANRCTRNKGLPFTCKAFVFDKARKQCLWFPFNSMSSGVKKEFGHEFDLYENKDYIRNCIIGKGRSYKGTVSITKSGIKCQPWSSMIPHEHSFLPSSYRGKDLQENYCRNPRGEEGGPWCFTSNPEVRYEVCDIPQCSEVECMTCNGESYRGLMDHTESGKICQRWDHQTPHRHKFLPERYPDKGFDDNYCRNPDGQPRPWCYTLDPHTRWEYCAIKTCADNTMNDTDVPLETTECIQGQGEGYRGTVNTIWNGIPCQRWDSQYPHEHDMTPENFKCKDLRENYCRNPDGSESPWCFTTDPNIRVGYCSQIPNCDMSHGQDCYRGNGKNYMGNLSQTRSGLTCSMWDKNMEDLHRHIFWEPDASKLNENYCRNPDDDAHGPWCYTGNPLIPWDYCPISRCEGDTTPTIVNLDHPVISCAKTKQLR
Sequence (P14210 495-728, chain 2 of 2): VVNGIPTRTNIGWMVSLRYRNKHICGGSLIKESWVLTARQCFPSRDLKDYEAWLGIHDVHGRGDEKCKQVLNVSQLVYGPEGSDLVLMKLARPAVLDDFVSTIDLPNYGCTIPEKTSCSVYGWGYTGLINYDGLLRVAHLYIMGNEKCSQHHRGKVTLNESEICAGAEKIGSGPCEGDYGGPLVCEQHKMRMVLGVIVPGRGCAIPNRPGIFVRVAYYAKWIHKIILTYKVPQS

Binder | binding result
GGGGATGGCGATGGGGAGCAGG (structured_DNA) [HGF-PQS3] | no binding
GGAATAGGGAAGGTTAGCAGG (ssDNA) [HGF-PQS2] | no binding

target: ApoE4 (UniProt P02649 19-317, C130R); assay: SPR
Sequence (P02649 19-317 C130R): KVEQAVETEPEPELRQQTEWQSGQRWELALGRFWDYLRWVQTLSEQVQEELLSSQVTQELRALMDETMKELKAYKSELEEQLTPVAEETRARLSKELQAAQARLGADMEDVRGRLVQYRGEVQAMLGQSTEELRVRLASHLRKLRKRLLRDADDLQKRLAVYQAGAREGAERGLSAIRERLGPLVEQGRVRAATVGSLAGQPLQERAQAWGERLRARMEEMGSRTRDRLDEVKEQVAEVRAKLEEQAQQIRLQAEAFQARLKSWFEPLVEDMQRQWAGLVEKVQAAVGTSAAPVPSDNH

Binder | binding result | Kd
GGATGGAGGAGATGGGCAGCCGG (structured_DNA) [ApoE4-PQS5] | no binding | –
GGACGAGGTGAAGGAGCAGG (structured_DNA) [ApoE4-PQS6] | no binding | –
GGGCTGGGATGGGGCGGG (structured_DNA) [ApoE4-PQS8] | no binding | –
GGTGGCGGAGG (structured_DNA) [ApoE4-PQS1] | – | 60 nM
GGCCCGGCTGGGCGCGG (structured_DNA) [ApoE4-PQS2] | no binding | –
GGAGCGGGCCCAGGCCTGGG (structured_DNA) [ApoE4-PQS4] | no binding | –
GGCCCCTGGTGGAACAGGG (structured_DNA) [ApoE4-PQS3] | no binding | –
GGCTGGTGGAGAAGGTGCAGG (structured_DNA) [ApoE4-PQS7] | no binding | –
